# Experimental data reported in patent publication US8367390B2, “Galactanase variants” (Novozymes A/S, priority 2002, dated 2013).
# B1: MTGAL: GH Family 53 galactanase from Myceliophthora thermophila, SEQ ID NO: 1 (wild type parent) (protein, listed as Myceliophthora thermophila)
# chain: ALTYRGVDWSSVVVEERAGVSYKNTNGNAQPLENILAANGVNTVRQRVWVNPADGNYNLDYNIAIAKRAKAAGLGVYIDFHYSDTWADPAHQTMPAGWPSDIDNLSWKLYNYTLDAANKLQNAGIQPTIVSIGNEIRAGLLWPTGRTENWANIARLLHSAAWGIKDSSLSPKPKIMIHLDNGWDWGTQNWWYTNVLKQGTLELSDFDMMGVSFYPFYSSSATLSALKSSLDNMAKTWNKEIAVVETNWPISCPNPRYSFPSDVKNIPFSPEGQTTFITNVANIVSSVSRGVGLFYWEPAWIHNANLGSSCADNTMFSQSGQALSSLSVFQRI
# modifications: mat_peptide (1)..()
# Experiment: Activity on lactose, products by HPAE-PAD
# Type: biochemical
# Settings: lactose 100 mg/ml, 50° C., pH 6.45
# Experimental: HIGAL (60 micrograms/ml) and MTGAL (750 μg/ml) were incubated at 50° C. with lactose (Lac) (100 mg/ml) at pH 4.8 (25 mM sodium citrate), 6.45 (25 mM sodium acetate, 0.5 mM CaCl2, 0.005% Triton X-100) and 8.6 (50 mM Tris, 0.01% Brij 35). 20 microliters samples were withdrawn after 2, 23 and 120 hours, 980 water added and enzyme inactivated by heating to 95° C. for 10 min. After a further 20 time dilution with water, samples were analysed using HPAE-PAD (Dionex LC-500 system, PA-100 column, 0-3 min: 150 mM NaOH, 3-19 min: linear gradient 0-0.18 M sodium acetate in 150 mM NaOH). Response factors for the individual peaks were estimated from standards of Gal, Glu, Lac, Gal2, Gal3 and Gal4.
# In Tables 12 and 13 weight fractions of the analysed products with MTGAL at pH […] and 6.45 are given. The figures indicate weight % of the products resulting from the incubation. The term DP3 indicates transglycosylation product consisting of three sugar units, and the term DP4+ transglycosylation products consisting of four or more sugar units. Unfortunately, the analysis method used was not able to separate Glu and Gal.
molecule,measurement,setting,value
B1,DP3 in products,incubation time 2 hours,1.4 weight %
same,Glu/Gal in products,incubation time 2 hours,1.0 weight %
same,Lac/Gal2 in products,incubation time 2 hours,95.7 weight %
same,DP3 in products,incubation time 23 hours,6.3 weight %
same,Glu/Gal in products,incubation time 23 hours,6.5 weight %
same,Lac/Gal2 in products,incubation time 23 hours,85.3 weight %
same,Glu/Gal in products,incubation time 120 hours,21.0 weight %
